{
  "source": "patent US20060052582A1",
  "about": "“Identification of inhibitors of mitosis” (priority 2002, published 2006)",
  "molecules": {"B1": {"name": "FLAG Nercc1 (347-979): FLAG-tagged polypeptide consisting of Nercc1 amino acids 347-979 of SEQ ID NO:2 (protein, listed as Homo sapiens)", "chain": "SEVYIWGGGKSTPQKLDVIKSGCSARQVCAGNTHFAVVTVEKELYTWVNMQGGTKLHGQLGHGDKASYRQPKHVEKLQGKAIHQVSCGDDFTVCVTDEGQLYAFGSDYYGCMGVDKVAGPEVLEPMQLNFFLSNPVEQVSCGDNHVVVLTRNKEVYSWGCGEYGRLGLDSEEDYYTPQKVDVPKALIIVAVQCGCDGTFLLTQSGKVLACGLNEFNKLGLNQCMSGIINHEAYHEVPYTTSFTLAKQLSFYKIRTIAPGKTHTAAIDERGRLLTFGCNKCGQLGVGNYKKRLGINLLGGPLGGKQVIRVSCGDEFTIAATDDNHIFAWGNGGNGRLAMTPTERPHGSDICTSWPRPIFGSLHHVPDLSCRGWHTILIVEKVLNSKTIRSNSSGLSIGTVFQSSSPGGGGGGGGGEEEDSQQESETPDPSGGFRGTMEADRGMEGLISPTEAMGNSNGASSSCPGWLRKELENAEFIPMPDSPSPLSAAFSESEKDTLPYEELQGLKVASEAPLEHKPQVEASSPRLNPAVTCAGKGTPLTPPACACSSLQVEVERLQGLVLKCLAEQQKLQQENLQIFTQLQKLNKKLEGGQQVGMHSKGTQTAKEEMEMDPKPDLDSDSGCLLGTDSCRPSL", "modifications": "FLAG tag"}},
  "system": "Nek6",
  "sequence (Q9HC98 whole entry, the tested form may be a part)": "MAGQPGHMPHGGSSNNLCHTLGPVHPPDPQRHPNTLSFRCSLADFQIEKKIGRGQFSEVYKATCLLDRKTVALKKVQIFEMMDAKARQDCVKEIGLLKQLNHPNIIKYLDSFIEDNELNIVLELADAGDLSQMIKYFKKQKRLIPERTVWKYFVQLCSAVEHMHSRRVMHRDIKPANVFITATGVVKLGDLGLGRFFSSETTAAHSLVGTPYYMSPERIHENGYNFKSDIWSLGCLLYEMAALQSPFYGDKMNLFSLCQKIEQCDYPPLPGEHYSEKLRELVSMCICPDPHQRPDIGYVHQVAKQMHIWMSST",
  "test": "Activity and phosphorylation of GST Nek6 coexpressed with Nercc1 noncatalytic fragment in HEK293 cells",
  "assay_type": "cell-based, human",
  "procedure": "GST Nek6 was coexpressed with increasing quantities of FLAG Nercc1 (347-979). The kinase activity of GST Nek6 was measured using MBP as substrate.\nGST Nek6 was cotransfected in HEK293 cells with increasing amounts of FLAG Nercc1 (347-979), and immunoblots of the extracts were carried out using the indicated antibodies.",
  "data": [
    {"molecule": "B1", "values": [
      {"measurement": "effect on Nek6 activation loop phosphorylation", "setting": "cotransfected in HEK293 cells", "result": "suppresses"},
      {"measurement": "effect on kinase activity of coexpressed GST Nek6", "setting": "overexpression in vivo, MBP as substrate", "result": "inhibited"}
    ]}
  ]
}
